The record followed here is article PMC10791543 (Science signaling, 2023).

Common to all, as to experiment: other fluorescence titration
Assay [1] concerns the target recombinant RHOA^L57V (human) (UniProt P61586).
Assay [2] addresses recombinant RHOA^WT (human) (UniProt P61586).
The target in a further assay is recombinant RHOA^WT (human, UniProt P61586 1-193).
The target of another assay is recombinant RHOA^L57V (human, UniProt P61586 1-193, L57V).

As a reminder, the Kd is the equilibrium constant for the complex coming apart.

Sequence of recombinant RHOA^L57V (human) (P61586 whole entry L57V): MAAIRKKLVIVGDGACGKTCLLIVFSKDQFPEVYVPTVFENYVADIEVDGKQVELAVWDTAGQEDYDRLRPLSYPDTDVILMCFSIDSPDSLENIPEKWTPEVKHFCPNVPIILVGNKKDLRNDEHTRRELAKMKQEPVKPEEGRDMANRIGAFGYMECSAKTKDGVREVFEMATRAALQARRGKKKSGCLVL
Sequence of recombinant RHOA^L57V (P61586 whole entry L57V): as above
Sequence of recombinant RHOA^WT (human) (P61586 whole entry): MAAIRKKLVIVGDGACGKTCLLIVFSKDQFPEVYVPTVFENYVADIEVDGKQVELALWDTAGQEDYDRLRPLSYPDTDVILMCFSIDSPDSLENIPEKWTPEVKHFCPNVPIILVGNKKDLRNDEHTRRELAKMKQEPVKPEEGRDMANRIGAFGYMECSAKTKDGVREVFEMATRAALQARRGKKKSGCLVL
Sequence of recombinant RHOA^WT (P61586 whole entry): as above

Take GST-ROCK1-RBD (domain or fragment): the Kd was found to be 243 nM in assay [1] and 439 nM in assay [2].

B1: GST-Rhotekin-RBD (domain or fragment, mouse, UniProt Q8C6B2-2 7-89, looked up)
chain: ILEDLNMLYIRQMALSLEDTELQRKLDHEIRMRDGACKLLAACSQREQALEATKSLLVCNSRILSYMGELQRRKEAQVLEKTG
Regarding B1, the Kd in the assay with recombinant RHOA^WT was 258 ± 15 nM; with recombinant RHOA^L57V, 220 ± 10 nM.
